The record followed here is article PMC6005765 (Bioorganic & medicinal chemistry letters, 2018).

Starred links: 1 amine or outer side, 2 acyl side, 3 side chain; linkers in the order of their positions; H or OH if unused. Non-standard residues stand in square brackets, D forms with d. No end group written: not given here. Phe(2-(4-MeO-phenyl)) = COc1ccc(-c2ccccc2C[C@H](N[*:1])C(=O)[*:2])cc1; Phe(2-(4-Cl-phenyl)) = O=C([C@H](Cc1ccccc1-c1ccc(Cl)cc1)N[*:1])[*:2]; Phe(2-(4-F-phenyl)) = O=C([C@H](Cc1ccccc1-c1ccc(F)cc1)N[*:1])[*:2]; Phe(4-(3-thienyl)) = O=C([C@H](Cc1ccc(-c2ccsc2)cc1)N[*:1])[*:2]; Phe(2-vinyl) = C=Cc1ccccc1C[C@H](N[*:1])C(=O)[*:2]; Phe(2-Ph) = N[C@@H](Cc1ccccc1-c1ccccc1)C(=O)O; Bip = N[C@@H](Cc1ccc(-c2ccccc2)cc1)C(=O)O; Dmt = Cc1cc(O)cc(C)c1C[C@H](N)C(=O)O; dNMeA = CN[C@H](C)C(=O)O

Assay [1] deals with μ opioid receptor (UniProt P35372).
For assay [2], the target named is μ opioid receptor (MOP) (Homo sapiens, UniProt P35372). It is filed as binding. To be noted: [125I]-DAMGO competition, HEK293 membranes.
For assay [3], the target named is δ opioid receptor (UniProt P41143).
The target in assay [4] is μ opioid receptor (UniProt P35372). As to the kind of experiment: radioligand binding.
For assay [5], the target named is δ opioid receptor (UniProt P41143). As to the kind of experiment: radioligand binding.

Chain of μ opioid receptor (MOP) (P35372 whole entry, species assumed): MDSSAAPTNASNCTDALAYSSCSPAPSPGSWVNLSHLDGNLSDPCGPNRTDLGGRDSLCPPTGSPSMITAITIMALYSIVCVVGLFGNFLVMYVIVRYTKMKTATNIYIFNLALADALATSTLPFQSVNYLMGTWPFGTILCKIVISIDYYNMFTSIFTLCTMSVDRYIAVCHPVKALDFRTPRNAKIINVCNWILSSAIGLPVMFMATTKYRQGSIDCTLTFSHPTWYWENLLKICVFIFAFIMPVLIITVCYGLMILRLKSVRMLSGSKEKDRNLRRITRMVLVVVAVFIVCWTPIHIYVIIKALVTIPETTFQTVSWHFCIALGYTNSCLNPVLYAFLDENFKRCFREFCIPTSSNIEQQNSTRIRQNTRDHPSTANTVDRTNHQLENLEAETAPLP

Regarding Deltorphin II (peptide), the IC50 in the guinea pig ileum (GPI) assay in assay [1] worked out at 854 nM.

As to `Cc1cc(O)cc(C)c1C[C@H](N)C(=O)N[C@H](C)C(=O)N[C@@H](Cc1ccccc1-c1ccsc1)C(=O)NCC(N)=O` [Compound 16, Dmt-D-Ala-Phe(2-(3-thienyl))-Gly-NH2], the “MOP IC50” value in assay [2] was “poor affinity for MOP”.

Turning to `C=Cc1ccccc1C[C@H](NC(=O)[C@@H](CCCNC(=N)N)NC(=O)[C@@H](N)Cc1c(C)cc(O)cc1C)C(=O)NCC(N)=O` [Compound 9, Dmt-D-Arg-Phe(2-vinyl)-Gly-NH2], the “MOP IC50” value in assay [2] is given as “subnanomolar binding affinity”.

B1: Dmt-D-Arg-Phe(4-phenyl)-Gly-NH2 (peptide)
peptide: [Dmt][dR][Bip]G-NH2
modifications: N-terminus assumed
SMILES: Cc1cc(O)cc(C)c1C[C@H](N)C(=O)N[C@H](CCCNC(=N)N)C(=O)N[C@@H](Cc1ccc(-c2ccccc2)cc1)C(=O)NCC(N)=O
B1 returned an IC20 (partial agonist) in the mouse vas deferens (MVD) assay in assay [3] of 3090 nM. Further, the 50% inhibitory concentration (IC50) (in general, the concentration needed to halve the response being measured) was determined as 7.08 nM in assay [4] and 42.3 nM in assay [5].

B2: Dmt-N-Me-D-Ala-Phe(2-vinyl)-Gly-NH2 (peptide)
peptide: [Dmt][dNMeA][Phe(2-vinyl)]G-NH2
modifications: N-terminus assumed
SMILES: C=Cc1ccccc1C[C@H](NC(=O)[C@@H](C)N(C)C(=O)[C@@H](N)Cc1c(C)cc(O)cc1C)C(=O)NCC(N)=O
As for B2, the IC50 in the guinea pig ileum (GPI) assay in assay [1] stood at 0.641 nM. In assay [3], this molecule showed an IC50 in the mouse vas deferens (MVD) assay of 0.689 nM.

B3: Dmt-D-Arg-Phe(4-(3-thienyl))-Gly-NH2 (peptide)
peptide: [Dmt][dR][Phe(4-(3-thienyl))]G-NH2
modifications: N-terminus assumed
SMILES: Cc1cc(O)cc(C)c1C[C@H](N)C(=O)N[C@H](CCCNC(=N)N)C(=O)N[C@@H](Cc1ccc(-c2ccsc2)cc1)C(=O)NCC(N)=O
In assay [3], B3 gave an IC20 (partial agonist) in the mouse vas deferens (MVD) assay of 3960 nM. For the same molecule, the IC50 worked out at 5.04 nM in assay [4] and 309 nM in assay [5].

B4: Dmt-D-Arg-Phe(2-(4-F-phenyl))-Gly-NH2 (peptide)
peptide: [Dmt][dR][Phe(2-(4-F-phenyl))]G-NH2
modifications: N-terminus assumed
SMILES: Cc1cc(O)cc(C)c1C[C@H](N)C(=O)N[C@H](CCCNC(=N)N)C(=O)N[C@@H](Cc1ccccc1-c1ccc(F)cc1)C(=O)NCC(N)=O
B4 registered an IC50 in the guinea pig ileum (GPI) assay in assay [1] of 0.801 nM. Besides, the IC50 in the mouse vas deferens (MVD) assay in assay [3] was found to be 2.95 nM.

B5: Dmt-D-Arg-Phe(2-(4-Cl-phenyl))-Gly-NH2 (peptide)
peptide: [Dmt][dR][Phe(2-(4-Cl-phenyl))]G-NH2
modifications: N-terminus assumed
SMILES: Cc1cc(O)cc(C)c1C[C@H](N)C(=O)N[C@H](CCCNC(=N)N)C(=O)N[C@@H](Cc1ccccc1-c1ccc(Cl)cc1)C(=O)NCC(N)=O
In assay [1], B5 returned an IC50 in the guinea pig ileum (GPI) assay of 2.39 nM. The IC50 in the mouse vas deferens (MVD) assay in assay [3] amounted to 1.63 nM.

B6: Dmt-D-Arg-Phe(2-phenyl)-Gly-NH2 (peptide)
peptide: [Dmt][dR][Phe(2-Ph)]G-NH2
modifications: N-terminus assumed
SMILES: Cc1cc(O)cc(C)c1C[C@H](N)C(=O)N[C@H](CCCNC(=N)N)C(=O)N[C@@H](Cc1ccccc1-c1ccccc1)C(=O)NCC(N)=O
The molecule B6 gave an IC50 in the guinea pig ileum (GPI) assay in assay [1] of 3.47 nM. Also, the IC50 in the mouse vas deferens (MVD) assay in assay [3] worked out at 6.99 nM. Moreover, the half-maximal inhibitory concentration (IC50) in assay [4] was determined as 0.54 nM; in assay [5], 20.2 nM.

B7: Dmt-D-Arg-Phe(2-(4-MeO-phenyl))-Gly-NH2 (peptide)
peptide: [Dmt][dR][Phe(2-(4-MeO-phenyl))]G-NH2
modifications: N-terminus assumed
SMILES: COc1ccc(-c2ccccc2C[C@H](NC(=O)[C@@H](CCCNC(=N)N)NC(=O)[C@@H](N)Cc2c(C)cc(O)cc2C)C(=O)NCC(N)=O)cc1
Molecule B7 registered an IC50 in the guinea pig ileum (GPI) assay in assay [1] of 0.901 nM. Besides, the IC50 in the mouse vas deferens (MVD) assay in assay [3] came to 5.23 nM.
